Earlier results as cited in publication PMC5338744.

Target: VEGFR2 (KDR) (Homo sapiens) (UniProt P35968)
Sequence of UniProt P35968 (P35968 20-1356): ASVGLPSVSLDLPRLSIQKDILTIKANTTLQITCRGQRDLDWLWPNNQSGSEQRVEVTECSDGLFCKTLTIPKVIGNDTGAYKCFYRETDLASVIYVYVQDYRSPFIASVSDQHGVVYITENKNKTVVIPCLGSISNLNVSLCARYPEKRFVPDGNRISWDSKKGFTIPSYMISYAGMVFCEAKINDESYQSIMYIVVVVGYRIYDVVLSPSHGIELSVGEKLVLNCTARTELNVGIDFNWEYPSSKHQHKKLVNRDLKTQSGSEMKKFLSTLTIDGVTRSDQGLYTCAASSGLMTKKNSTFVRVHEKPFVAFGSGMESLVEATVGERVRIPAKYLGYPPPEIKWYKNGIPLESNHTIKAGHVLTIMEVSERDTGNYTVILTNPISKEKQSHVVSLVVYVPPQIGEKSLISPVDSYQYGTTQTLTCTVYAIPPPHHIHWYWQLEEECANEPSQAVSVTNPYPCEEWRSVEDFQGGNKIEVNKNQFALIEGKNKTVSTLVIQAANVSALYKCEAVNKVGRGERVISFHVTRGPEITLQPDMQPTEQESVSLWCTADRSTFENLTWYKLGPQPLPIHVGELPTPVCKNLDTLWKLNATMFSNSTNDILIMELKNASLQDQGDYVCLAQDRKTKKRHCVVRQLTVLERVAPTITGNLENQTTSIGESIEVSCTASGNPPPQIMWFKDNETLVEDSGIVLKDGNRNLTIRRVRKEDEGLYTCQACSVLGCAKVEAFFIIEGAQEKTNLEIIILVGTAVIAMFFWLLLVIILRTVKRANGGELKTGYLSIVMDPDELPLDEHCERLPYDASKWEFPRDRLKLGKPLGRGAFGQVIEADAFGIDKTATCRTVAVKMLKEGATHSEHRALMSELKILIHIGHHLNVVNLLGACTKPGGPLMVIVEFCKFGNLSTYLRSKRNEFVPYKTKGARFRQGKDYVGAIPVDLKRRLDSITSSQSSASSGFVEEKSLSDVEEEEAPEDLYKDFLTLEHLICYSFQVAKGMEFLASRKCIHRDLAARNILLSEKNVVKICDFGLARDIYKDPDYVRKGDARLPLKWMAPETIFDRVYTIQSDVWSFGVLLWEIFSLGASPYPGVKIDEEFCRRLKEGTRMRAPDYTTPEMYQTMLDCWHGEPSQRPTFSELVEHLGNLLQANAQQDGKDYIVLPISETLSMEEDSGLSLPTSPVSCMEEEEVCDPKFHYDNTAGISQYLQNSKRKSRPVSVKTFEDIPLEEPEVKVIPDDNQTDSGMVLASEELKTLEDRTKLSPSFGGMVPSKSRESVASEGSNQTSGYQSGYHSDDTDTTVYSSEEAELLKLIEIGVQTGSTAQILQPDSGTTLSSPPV

Kd: 0.76 nM
Substance: VEGF (from UniProt P15692)
